According to US20250049970A1, “DLL3 TARGETING PEPTIDES AND CONSTRUCTS THEREOF” (MARIANA ONCOLOGY INC., priority 2023, published 2025):
One block for each molecule: values may come before it. *1 amine or outer side, *2 acyl side, *3 side chain or, on linkers, in order; H or OH if unused. Where a SMILES comes first, the peptide text is derived from it. Bridges are numbered along the chain shown (N, C = ends). [ ]: non-standard residue; d: D form. The star is where a group is joined. ξ: configuration not given here. Ala(piperidin-4-yl) = O=C([C@H](CC1CCN([*:3])CC1)N[*:1])[*:2]; DOTA = O=C(O)CN1CCN(CC(=O)O)CCN(CC(=O)*)CCN(CC(=O)O)CC1; 2Nal = N[C@@H](Cc1ccc2ccccc2c1)C(=O)O; NMetBuAla = CN[C@@H](CC(C)(C)C)C(=O)O; tBuAla = CC(C)(C)C[C@H](N)C(=O)O; Thr(3ξ) = CC(O)[C@H](N)C(=O)O; αMeP = C[C@@]1(C(=O)O)CCCN1; CH2 = C([*:1])[*:2]

Columns and labels:
DLL3 = biological target: T1, DLL3 (Homo sapiens, UniProt Q9NYJ7); assay: SPR KD, biotinylated human DLL3 on streptavidin chip (Table 8); set-up: biotin (biotinylated); conditions: biotinylated human DLL3 on streptavidin sensor chip, 25° C., 1:1 binding model; read-out: SPR KD
T1 sequence (Q9NYJ7 27-618): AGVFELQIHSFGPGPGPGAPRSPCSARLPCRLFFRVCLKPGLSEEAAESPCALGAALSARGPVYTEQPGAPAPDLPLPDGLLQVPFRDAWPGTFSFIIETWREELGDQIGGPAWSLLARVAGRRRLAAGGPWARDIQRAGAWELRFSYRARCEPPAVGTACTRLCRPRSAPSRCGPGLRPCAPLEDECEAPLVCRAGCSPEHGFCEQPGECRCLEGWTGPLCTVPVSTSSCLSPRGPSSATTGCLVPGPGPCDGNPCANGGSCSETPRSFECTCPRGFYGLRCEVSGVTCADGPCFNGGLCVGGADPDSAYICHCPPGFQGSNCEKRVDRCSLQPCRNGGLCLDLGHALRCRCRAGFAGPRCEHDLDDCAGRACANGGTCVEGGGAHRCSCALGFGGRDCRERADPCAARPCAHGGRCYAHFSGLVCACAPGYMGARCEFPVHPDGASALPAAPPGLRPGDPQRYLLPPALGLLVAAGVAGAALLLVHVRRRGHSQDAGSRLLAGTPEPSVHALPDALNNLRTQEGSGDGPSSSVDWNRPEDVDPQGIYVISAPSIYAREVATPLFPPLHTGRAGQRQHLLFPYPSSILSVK
From the text: Biotinylated target ligand human DLL3 was immobilized on a streptavidin sensor chip. A reference surface was set up for nonspecific binding and refractive index changes. […] Sensorgram curves were fitted with 1:1 binding model, and affinity and kinetic parameters were obtained using Biacore Insight evaluation 4.0. software.

[1] = test system: nude mice bearing SHP-77 tumors; assay: Ex vivo biodistribution of radiolabeled peptides (% IA/g) in nude mice bearing SHP-77 tumors; conditions: [177Lu]Lu labelling, 24 hours post-injection, intravenous
Protocol: Mice were intravenously injected (via the lateral tail vein) with a bolus dose of the radiolabeled peptides for ex vivo biodistribution studies when tumor volumes were in range of 200-400 mm^3 for xenograft mice and when age of the mice was 5-7 weeks for tumor naïve mice studies. To assess the amount of radionuclide injected into individual mice the syringe was assayed in a dose calibrator before and after injection for [^177Lu]Lu-peptide, then the injected dose was determined from the weight difference and concentration of the radionuclide solution.
Mice were euthanized at pre-determined time points and selected tissues were resected and collected into pre-weighed tubes. The tubes were then reweighed post resection, the difference giving the weight of each tissue. Radioactivity in each tissue was measured using a gamma counter. Counts were decay corrected to the time of injection and percentage of injected activity per gram (% IA/g) was calculated for each tissue based on the injected activity into each individual mouse. Injected activity was converted to counts based on the sensitivity of the gamma counter. The counts in tissue were then converted to the percentage of injected activity and this was divided by the mass of tissue to give % IA/g.

[2] = biological target: T2, DLL3 (target ligand immobilized on a SA sensor chip via streptavidin capture) (Homo sapiens (Human), UniProt Q9NYJ7 27-492, limits assumed); assay: SPR, Biacore S200, target ligand on SA chip, 25 C, 1:1 fit
T2 sequence: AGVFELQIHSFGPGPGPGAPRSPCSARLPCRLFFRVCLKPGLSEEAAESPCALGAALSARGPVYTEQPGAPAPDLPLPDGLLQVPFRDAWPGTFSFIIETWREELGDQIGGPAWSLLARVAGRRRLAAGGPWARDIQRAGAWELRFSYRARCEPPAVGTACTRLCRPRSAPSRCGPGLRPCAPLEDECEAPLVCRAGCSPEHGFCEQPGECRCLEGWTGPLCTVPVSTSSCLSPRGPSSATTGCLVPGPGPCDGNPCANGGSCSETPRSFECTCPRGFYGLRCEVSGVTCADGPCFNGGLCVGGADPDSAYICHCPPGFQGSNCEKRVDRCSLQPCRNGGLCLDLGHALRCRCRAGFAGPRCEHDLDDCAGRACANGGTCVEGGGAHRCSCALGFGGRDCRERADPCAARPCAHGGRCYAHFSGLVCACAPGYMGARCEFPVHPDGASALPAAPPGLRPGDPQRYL
Protocol: Target ligand was immobilized on a SA sensor chip via streptavidin capture. A reference surface was set up for nonspecific binding and refractive index changes. For analysis of the kinetics of interactions, varying concentrations of peptides were injected at a flow rate of 50 μL/minute using running buffer containing 20 mM phosphate buffer with 2.7 mM KCl, 137 mM NaCl and 0.05% Surfactant P20. Sensorgram curves were fitted with 1:1 binding model, and affinity and kinetic parameters were obtained using either Biacore S200 evaluation software 1.1.1 or Biacore Insight evaluation 4.0.

B1: SEQ ID NO 79 (peptide)
peptide: Ac-MSDCWLQWNCPFD-NH2
modifications: disulfide 4-10
SMILES: CSCC[C@H](NC(C)=O)C(=O)N[C@@H](CO)C(=O)N[C@@H](CC(=O)O)C(=O)N[C@H]1CSSC[C@@H](C(=O)N2CCC[C@H]2C(=O)N[C@@H](Cc2ccccc2)C(=O)N[C@@H](CC(=O)O)C(N)=O)NC(=O)[C@H](CC(N)=O)NC(=O)[C@H](Cc2c[nH]c3ccccc23)NC(=O)[C@H](CCC(N)=O)NC(=O)[C@H](CC(C)C)NC(=O)[C@H](Cc2c[nH]c3ccccc23)NC1=O
Kd [2]: 32 nM

B2: SEQ ID NO 78 (peptide)
peptide: Ac-MVWVPCEWDDCFY-NH2
modifications: disulfide 6-11
SMILES: CSCC[C@H](NC(C)=O)C(=O)N[C@H](C(=O)N[C@@H](Cc1c[nH]c2ccccc12)C(=O)N[C@H](C(=O)N1CCC[C@H]1C(=O)N[C@H]1CSSC[C@@H](C(=O)N[C@@H](Cc2ccccc2)C(=O)N[C@@H](Cc2ccc(O)cc2)C(N)=O)NC(=O)[C@H](CC(=O)O)NC(=O)[C@H](CC(=O)O)NC(=O)[C@H](Cc2c[nH]c3ccccc23)NC(=O)[C@H](CCC(=O)O)NC1=O)C(C)C)C(C)C
Kd [2]: 68 nM

Molecule: Ac-MWTICNNWHDCWP-NH2 (disulfide 5-11) [SEQ ID NO 69]
Kd [2]: 12 nM

B6: SEQ ID NO 81 (peptide)
peptide: Ac-[dA]WTICNNWHDCWP-NH2
modifications: disulfide 5-11
SMILES: CC[C@H](C)[C@H](NC(=O)[C@@H](NC(=O)[C@H](Cc1c[nH]c2ccccc12)NC(=O)[C@@H](C)NC(C)=O)[C@@H](C)O)C(=O)N[C@H]1CSSC[C@@H](C(=O)N[C@@H](Cc2c[nH]c3ccccc23)C(=O)N2CCC[C@H]2C(N)=O)NC(=O)[C@H](CC(=O)O)NC(=O)[C@H](Cc2c[nH]cn2)NC(=O)[C@H](Cc2c[nH]c3ccccc23)NC(=O)[C@H](CC(N)=O)NC(=O)[C@H](CC(N)=O)NC1=O
Kd [2]: 6.5 nM

B7: SEQ ID NO 76 (peptide)
peptide: Ac-MDCNFFDCDAWTW-NH2
modifications: disulfide 3-8
SMILES: CSCC[C@H](NC(C)=O)C(=O)N[C@@H](CC(=O)O)C(=O)N[C@H]1CSSC[C@@H](C(=O)N[C@@H](CC(=O)O)C(=O)N[C@@H](C)C(=O)N[C@@H](Cc2c[nH]c3ccccc23)C(=O)N[C@H](C(=O)N[C@@H](Cc2c[nH]c3ccccc23)C(N)=O)[C@@H](C)O)NC(=O)[C@H](CC(=O)O)NC(=O)[C@H](Cc2ccccc2)NC(=O)[C@H](Cc2ccccc2)NC(=O)[C@H](CC(N)=O)NC1=O
Kd [2]: 290 nM

B8: SEQ ID NO 67 (peptide)
peptide: Ac-MWTICADWAQCWP-NH2
modifications: disulfide 5-11
SMILES: CC[C@H](C)[C@H](NC(=O)[C@@H](NC(=O)[C@H](Cc1c[nH]c2ccccc12)NC(=O)[C@H](CCSC)NC(C)=O)[C@@H](C)O)C(=O)N[C@H]1CSSC[C@@H](C(=O)N[C@@H](Cc2c[nH]c3ccccc23)C(=O)N2CCC[C@H]2C(N)=O)NC(=O)[C@H](CCC(N)=O)NC(=O)[C@H](C)NC(=O)[C@H](Cc2c[nH]c3ccccc23)NC(=O)[C@H](CC(=O)O)NC(=O)[C@H](C)NC1=O
Kd [2]: 72 nM

Molecule: {DOTA}-WTICNNWHDCWP-NH2 (disulfide 4-10) [SEQ ID NO 80]
Kd [2]: 80 nM

Now from value to molecule:

Kd (DLL3): < 1 nM
kidney uptake (% IA/g) [1]: C (“C” represents 0 < % IA/g ≤ 10 in)
tumor uptake (% IA/g) [1]: B (“B” represents % IA/g > 5 in tumor)
Molecule: CC(=O)N[C@@H](Cc1c[nH]c2ccccc12)C(=O)N[C@H](C(=O)N[C@@H](CC(C)(C)C)C(=O)N[C@H]1CSCSC[C@@H](C(=O)N[C@@H](Cc2c[nH]c3ccccc23)C(=O)N2CCC[C@@]2(C)C(N)=O)NC(=O)[C@H](CC(=O)O)NC(=O)[C@H](CCCCNC(=O)CN2CCN(CC(=O)O)CCN(CC(=O)O)CCN(CC(=O)O)CC2)NC(=O)[C@H](Cc2ccc3ccccc3c2)NC(=O)[C@H](CC(N)=O)NC(=O)[C@H](CC2CCNCC2)NC1=O)[C@@H](C)O [compound 437, Ac-W-T-(t-Bu-Ala)-C(1)-[3-(4-piperidinyl)-Ala]-N-(2Nal)-Lys(DOTA)-D-C(1)-W-(aMe-P)-CONH2] (Ac-WT[tBuAla]C[Ala(piperidin-4-yl)]N[2Nal]K(DOTA)DCW[αMeP]-NH2; linker 4-10 via CH2)

Kd (DLL3): < 1 nM
kidney uptake (% IA/g) [1]: C (“C” represents 0 < % IA/g ≤ 10 in)
tumor uptake (% IA/g) [1]: B (“B” represents % IA/g > 5 in tumor)
Molecule: CC(=O)N[C@@H](Cc1c[nH]c2ccccc12)C(=O)N[C@H](C(=O)N(C)[C@@H](CC(C)(C)C)C(=O)N[C@H]1CSCSC[C@@H](C(=O)N[C@@H](Cc2c[nH]c3ccccc23)C(=O)N2CCC[C@@]2(C)C(=O)O)NC(=O)[C@H](CC(=O)O)NC(=O)[C@H](CCCCNC(=O)CN2CCN(CC(=O)O)CCN(CC(=O)O)CCN(CC(=O)O)CC2)NC(=O)[C@H](Cc2ccc3ccccc3c2)NC(=O)[C@H](CC(N)=O)NC(=O)[C@H](CC2CCNCC2)NC1=O)C(C)O (stereo partly drawn) [compound 443, Ac-W-T-(NMe-tBuAla)-C(1)-[3-(4-piperidinyl)-Ala]-N-(2Nal)-Lys(DOTA)-D-C(1)-W-(aMe-P)-CO2H] (Ac-W[Thr(3ξ)][NMetBuAla]C[Ala(piperidin-4-yl)]N[2Nal]K(DOTA)DCW[αMeP]-OH; linker 4-10 via CH2)

Kd [2]: 320 nM
B3: SEQ ID NO 83 (peptide)
peptide: Ac-MWTICNNWH[dA]CWP-NH2
modifications: disulfide 5-11
SMILES: CC[C@H](C)[C@H](NC(=O)[C@@H](NC(=O)[C@H](Cc1c[nH]c2ccccc12)NC(=O)[C@H](CCSC)NC(C)=O)[C@@H](C)O)C(=O)N[C@H]1CSSC[C@@H](C(=O)N[C@@H](Cc2c[nH]c3ccccc23)C(=O)N2CCC[C@H]2C(N)=O)NC(=O)[C@@H](C)NC(=O)[C@H](Cc2c[nH]cn2)NC(=O)[C@H](Cc2c[nH]c3ccccc23)NC(=O)[C@H](CC(N)=O)NC(=O)[C@H](CC(N)=O)NC1=O

Kd [2]: 7.6 nM
B4: SEQ ID NO 86 (peptide)
peptide: Ac-AWTICNNWHDCWP-NH2
modifications: disulfide 5-11
SMILES: CC[C@H](C)[C@H](NC(=O)[C@@H](NC(=O)[C@H](Cc1c[nH]c2ccccc12)NC(=O)[C@H](C)NC(C)=O)[C@@H](C)O)C(=O)N[C@H]1CSSC[C@@H](C(=O)N[C@@H](Cc2c[nH]c3ccccc23)C(=O)N2CCC[C@H]2C(N)=O)NC(=O)[C@H](CC(=O)O)NC(=O)[C@H](Cc2c[nH]cn2)NC(=O)[C@H](Cc2c[nH]c3ccccc23)NC(=O)[C@H](CC(N)=O)NC(=O)[C@H](CC(N)=O)NC1=O

Kd [2]: 240 nM
B5: SEQ ID NO 84 (peptide)
peptide: Ac-MWTICNNWHDC[dA]P-NH2
modifications: disulfide 5-11
SMILES: CC[C@H](C)[C@H](NC(=O)[C@@H](NC(=O)[C@H](Cc1c[nH]c2ccccc12)NC(=O)[C@H](CCSC)NC(C)=O)[C@@H](C)O)C(=O)N[C@H]1CSSC[C@@H](C(=O)N[C@H](C)C(=O)N2CCC[C@H]2C(N)=O)NC(=O)[C@H](CC(=O)O)NC(=O)[C@H](Cc2c[nH]cn2)NC(=O)[C@H](Cc2c[nH]c3ccccc23)NC(=O)[C@H](CC(N)=O)NC(=O)[C@H](CC(N)=O)NC1=O
